Measurements taken from patent US20190224279A1, “PHARMACEUTICAL ASSOCIATION COMPRISING A GROWTH FACTOR RECEPTOR AGONIST CONJUGATED TO A BIOACTIVE CARRIER FOR CONVERTING A NEOPLASTIC CELL INTO A NON-NEOPLASTIC CELL AND USES THEREOF” (HISTIDE AG, priority 2015, published 2019).
No end group written: not given here.

Target: growth factor receptors
Test: cell-based or functional assay

| Binder | p-Smad1/5/8 (%) |
| --- | --- |
| ASASPSSVPQDLEPLTILYYVGRTPKVEQLSNMVEDH (not fully specified) [GFR-binding compound of SEQ ID NO: 80] | 34 |
| NDEGLECVPTEERPVQVRKIRIKPHQGQKKATVFLQHNK (not fully specified) [GFR-binding compound of SEQ ID NO: 64] | 36 |
| NDEGLECVPTEERPVQVRKIRIKPHQGQKKATVFLQHNK (not fully specified) [GFR-binding compound of SEQ ID NO: 79] | 27 |
| VPQALNAISTLYFDDSSNVILKKYRNMAVS (not fully specified) [GFR-binding compound of SEQ ID NO: 72] | 48 |
| VPQALSPINMLYFNEKNQIIYGKIPFLQHNK (not fully specified) [GFR-binding compound of SEQ ID NO: 75] | 54 |
| VPTELSPISILFIRIKPHQGHLGEMSAAVVE (not fully specified) [GFR-binding compound of SEQ ID NO: 70] | 30 |
| VPARLSPISILYIDAANNVVYKQYEDM (not fully specified) [GFR-binding compound of SEQ ID NO: 74] | 51 |
| RNVQCRPTQLEPLPIVYYEIVRKKPEQLSNTLEDHLA (not fully specified) [GFR-binding compound of SEQ ID NO: 81] | 41 |
| RNVQCRPTQLEPLPIVYYEIVRKKPEQLSNTLEDHLA (not fully specified) [GFR-binding compound of SEQ ID NO: 66] | 38 |
| VPQALSPISILFIRLKPHQGHLGEMSNMVVR (not fully specified) [GFR-binding compound of SEQ ID NO: 85] | 26 |
| TPTKMSPINMLYFNEKNNIIYGKIPGMVVD (not fully specified) [GFR-binding compound of SEQ ID NO: 76] | 55 |
| APTQLSAISTLYLEIVRKKPLKNYQFLQHNK (not fully specified) [GFR-binding compound of SEQ ID NO: 77] | 52 |
| VPTEESNITTQIMRIKPHQGQHIGEMSFLQH (not fully specified) [GFR-binding compound of SEQ ID NO: 84] | 22 |
| VPTEESNITTQIMRIKPHQGQHIGEMSFLQH (not fully specified) [GFR-binding compound of SEQ ID NO: 69] | 32 |
| ASASPSSVPQDLEPLTILYYVGRTPKVEQLSNMV (not fully specified) [GFR-binding compound of SEQ ID NO: 65] | 38 |
| VPEKMSSLSILFFDENKNVVLKVYPNMAVS (not fully specified) [GFR-binding compound of SEQ ID NO: 73] | 44 |
| APTQLSAISTLYLEIVRKKPLKNYQEMEDH (not fully specified) [GFR-binding compound of SEQ ID NO: 78] | 58 |
| TQVQLEPLTLLYYDENEKVIEQLSNDMVVE (not fully specified) [GFR-binding compound of SEQ ID NO: 71] | 47 |
| VPTKLSPISILYIDKMGVPTYKQYEEGMSVAE (not fully specified) [GFR-binding compound of SEQ ID NO: 82] | 35 |
| VPQALSPISILYIDDMGVPTYKQYEEGMSVAE (not fully specified) [GFR-binding compound of SEQ ID NO: 68] | 39 |
| VPTKLSPISILYIDDMGVPTYKQYEEGMSVAE (not fully specified) [GFR-binding compound of SEQ ID NO: 67] | 40 |
| VPARLSPISILYIDEMGVPTYKQYEEGMSVAE (not fully specified) [GFR-binding compound of SEQ ID NO: 83] | 33 |

The remaining lines, values ahead:

| p-Smad1/5/8 (%) | Binder |
| --- | --- |
| 34 | APTKLEPLPMVYYEERRNVIEQLSNNMVVR (not fully specified) [GFR-binding compound of SEQ ID NO: 86] |
| 47 | VPTHHSAISTLYLELAGEKPLKNYQFLQHNK (not fully specified) [GFR-binding compound of SEQ ID NO: 96] |
| 41 | VPQALSPISILFIVGRKPKVYKQYEMIVERS (not fully specified) [GFR-binding compound of SEQ ID NO: 89] |
| 32 | APTKLEPLTIVYYDDSSNVIEQLSNNMVVR (not fully specified) [GFR-binding compound of SEQ ID NO: 88] |
| 41 | TPTKMSPINMLYFNEKNNIIYGKIPGM (not fully specified) [GFR-binding compound of SEQ ID NO: 94] |
| 52 | VPEKMSSLSILFFDENKNAALKVYPNMTVE (not fully specified) [GFR-binding compound of SEQ ID NO: 92] |
| 46 | VPTHHSAISMLYLELGGDKPLENYQFLQ (not fully specified) [GFR-binding compound of SEQ ID NO: 97] |
| 29 | RNVQCRPTQLEPLPIVYYEIVRKKPEQLSNTLE (not fully specified) [GFR-binding compound of SEQ ID NO: 95] |
| 44 | VPARLSPISILYIDAANNVVYKQYEDMVKS (not fully specified) [GFR-binding compound of SEQ ID NO: 93] |
| 39 | VSQDLSAISTLYLKIVRKEPLKNYQEMVEE (not fully specified) [GFR-binding compound of SEQ ID NO: 98] |
| 36 | VPTELSPISILFIVGGKPKVYKQYENMVVE (not fully specified) [GFR-binding compound of SEQ ID NO: 90] |
| 56 | SRVHHNAISTLYFDESSNVILKKYRGMSVVE (not fully specified) [GFR-binding compound of SEQ ID NO: 91] |
| 38 | VPTKLSAISTLYLDLAREEPLKNYQEMVVE (not fully specified) [GFR-binding compound of SEQ ID NO: 87] |
